Laboratory results reported in patent US20160251440A1 (Ablynx, published 2016).

T1: human IL-23R, cell-expressed (human, UniProt Q5VWK5 24-629)
T1 sequence (looked up): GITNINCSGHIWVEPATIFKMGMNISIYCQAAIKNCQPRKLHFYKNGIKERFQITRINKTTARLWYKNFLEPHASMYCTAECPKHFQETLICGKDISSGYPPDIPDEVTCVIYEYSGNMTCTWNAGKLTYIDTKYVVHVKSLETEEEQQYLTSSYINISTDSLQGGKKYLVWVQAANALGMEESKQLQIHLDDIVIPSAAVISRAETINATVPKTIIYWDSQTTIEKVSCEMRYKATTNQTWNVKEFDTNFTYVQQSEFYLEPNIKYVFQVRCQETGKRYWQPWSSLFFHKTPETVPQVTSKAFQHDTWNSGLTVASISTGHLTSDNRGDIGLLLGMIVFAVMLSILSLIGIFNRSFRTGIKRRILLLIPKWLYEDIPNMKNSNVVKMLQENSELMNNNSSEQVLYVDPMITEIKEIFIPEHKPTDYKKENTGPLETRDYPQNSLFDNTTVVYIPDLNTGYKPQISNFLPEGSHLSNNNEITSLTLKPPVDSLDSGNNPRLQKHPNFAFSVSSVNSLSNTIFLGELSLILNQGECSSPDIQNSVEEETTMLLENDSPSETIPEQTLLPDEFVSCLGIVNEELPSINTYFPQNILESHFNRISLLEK

T2: human IL-23R extracellular domain Fc-fusion (human, UniProt Q5VWK5 24-355)
T2 construct: extracellular domain; bought; also called IL-23R-Fc
T2 sequence (looked up): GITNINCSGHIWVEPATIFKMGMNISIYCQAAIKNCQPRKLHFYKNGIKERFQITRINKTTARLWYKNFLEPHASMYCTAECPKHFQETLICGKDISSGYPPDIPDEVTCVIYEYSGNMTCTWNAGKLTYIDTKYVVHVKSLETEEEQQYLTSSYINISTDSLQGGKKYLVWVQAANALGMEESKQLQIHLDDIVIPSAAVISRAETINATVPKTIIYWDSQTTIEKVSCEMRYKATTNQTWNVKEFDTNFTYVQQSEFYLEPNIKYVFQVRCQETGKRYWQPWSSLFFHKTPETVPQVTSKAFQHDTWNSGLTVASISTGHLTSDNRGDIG


Legend:
[1] = molecular target: T1, human IL-23R, cell-expressed; experiment: cell-based or functional assay
[2] = molecular target: T3, human CD4, cell-expressed (human, UniProt P01730 26-458); experiment: flow cytometry on MOLM-13 cells (CD4, no IL12R or IL23R), upper right panel
T3 construct: whole, on cells

[3] = molecular target: T2, human IL-23R extracellular domain …; experiment: competition ELISA, coated IL-23 + IL-23R-Fc
[4] = molecular target: T3, human CD4, cell-expressed; experiment: flow cytometry on activated T cells of donor D838 (very high CD4), lower left panel
[5] = molecular target: T2, human IL-23R extracellular domain …; experiment: competition ELISA, ratio to monovalent IL23R#20
[6] = molecular target: T2, human IL-23R extracellular domain …; experiment: competition ELISA, ratio to monovalent IL23R#19
[7] = molecular target: T4, human IL12Rβ1, cell-expressed (human, UniProt P42701 24-662); experiment: cell-based or functional assay
[8] = molecular target: T5, human IL12Rβ1 extracellular domain Fc-fusion (human, UniProt P42701 24-545); experiment: competition ELISA, coated IL-12 + IL12Rβ1-Fc
T5 construct: extracellular domain; bought; also called IL12Rβ1-Fc; hIL-12Rβ1-Fc; not shown: Fc part, captured by anti-hIgG

[9] = molecular target: T5, human IL12Rβ1 extracellular domain …; experiment: competition ELISA, ratio to monovalent IL12Rb1#30
[10] = molecular target: T3, human CD4, cell-expressed; experiment: flow cytometry on MOLM-13 cells (CD4, no IL12R or IL23R), lower left panel
[11] = molecular target: T3, human CD4, cell-expressed; experiment: flow cytometry on activated T cells of donor D838 (very high CD4, moderate IL12R), upper right panel
[12] = molecular target: T4, human IL12Rβ1, cell-expressed; experiment: cell-based or functional assay; remark: listed apart in the source
[13] = molecular target: T5, human IL12Rβ1 extracellular domain …; experiment: competition ELISA, ratio to monovalent IL12Rb1#30; remark: listed apart in the source
[14] = molecular target: T5, human IL12Rβ1 extracellular domain …; experiment: competition ELISA, coated IL-23 + IL12Rβ1-Fc
[15] = molecular target: T5, human IL12Rβ1 extracellular domain …; experiment: competition ELISA, ratio to monovalent IL12Rb1#31
[16] = molecular target: T5, human IL12Rβ1 extracellular domain …; experiment: competition ELISA, ratio to monovalent IL12Rb1#31; remark: listed apart in the source

Binder	EC50 (read off the curve) [2]	IC50 [3]	EC50 (read off the curve) [4]	IC50, IL-17 release, PBMC D840 [7]	fold ctrl, IL-17 release [7]	IC50 [8]	EC50 (read off the curve) [10]	EC50 (read off the curve) [11]	IC50, IFNγ release, PBMC D840 [12]	IC50, IFNγ release, T cells D839 [12]	fold ctrl, IFNγ release, PBMC D840 [12]	IC50 [14]	other results
IL12Rb1#30-35GS-CD4#8 (bispecific antibody, also called BI#46; T023200046) EVQLVESGGGLVQTGGSLRLSCAASGRTPRLVAMGWFRQTPGKEREFVGEIILSKGFTYYADSVKGRFTISRVNAKNTITMYLQMNSLKSEDTAVYYCAGRQNWSGSPARTNEYEYWGQGTLVTVSSGGGGSGGGGSGGGGSGGGGSGGGGSGGGGSGGGGSEVQLVESGGGSVQPGGSLTLSCGTSGRTFNVMGWFRQAPGKEREFVAAVRWSSTGIYYTQYADSVKSRFTISRDNAKNTVYLEMNSLKPEDTAVYYCAADTYNSNPARWDGYDFRGQGTLVTVSS				16 pM	875 fold	6.2 nM	~1 nM	~1 nM	0.45 nM	290 pM	38 fold	3 nM	fold ctrl [9]: 0.6 fold; fold ctrl, IFNγ release, T cells D839 [12]: 552 fold; fold ctrl [13]: 0.5 fold
IL12Rb1#31-35GS-CD4#8 (bispecific antibody, also called BI#47; T023200047) EVQLVESGGGLVQTGGSLRLSCAASGRTPSIIAMGWFRQTPGKEREFVGEIILSKGFTYYADSVKGRFTISRANAKNTITMYLQMNSLKSEDTAVYYCAARQNWSGNPTRTNEYEYWGQGTLVTVSSGGGGSGGGGSGGGGSGGGGSGGGGSGGGGSGGGGSEVQLVESGGGSVQPGGSLTLSCGTSGRTFNVMGWFRQAPGKEREFVAAVRWSSTGIYYTQYADSVKSRFTISRDNAKNTVYLEMNSLKPEDTAVYYCAADTYNSNPARWDGYDFRGQGTLVTVSS				230 pM	565 fold	24 nM	~1 nM	~1 nM	1.9 nM	4100 pM	41 fold	13 nM	fold ctrl [15]: 0.9 fold; fold ctrl [16]: 0.8 fold
CD4#8-35GS-IL12Rb1#30 (bispecific antibody, also called BI#40; T023200040) EVQLVESGGGSVQPGGSLTLSCGTSGRTFNVMGWFRQAPGKEREFVAAVRWSSTGIYYTQYADSVKSRFTISRDNAKNTVYLEMNSLKPEDTAVYYCAADTYNSNPARWDGYDFRGQGTLVTVSSGGGGSGGGGSGGGGSGGGGSGGGGSGGGGSGGGGSEVQLVESGGGLVQTGGSLRLSCAASGRTPRLVAMGWFRQTPGKEREFVGEIILSKGFTYYADSVKGRFTISRVNAKNTITMYLQMNSLKSEDTAVYYCAGRQNWSGSPARTNEYEYWGQGTLVTVSS				35 pM	1630 fold	7.3 nM	~1 nM	~1 nM	0.36 nM	280 pM	47 fold	3.6 nM	fold ctrl [9]: 0.5 fold; fold ctrl, IFNγ release, T cells D839 [12]: 429 fold; fold ctrl [13]: 0.4 fold

The next lines start with results.

EC50 (read off the curve) [2]	IC50 [3]	EC50 (read off the curve) [4]	IC50, IL-17 release, PBMC D840 [7]	fold ctrl, IL-17 release [7]	IC50 [8]	EC50 (read off the curve) [10]	EC50 (read off the curve) [11]	IC50, IFNγ release, PBMC D840 [12]	IC50, IFNγ release, T cells D839 [12]	fold ctrl, IFNγ release, PBMC D840 [12]	IC50 [14]	Binder	other results
~1 nM	15 nM	~1 nM										CD4#8-35GS-IL23R#20 (bispecific antibody, also called BI#44; T023200044) EVQLVESGGGSVQPGGSLTLSCGTSGRTFNVMGWFRQAPGKEREFVAAVRWSSTGIYYTQYADSVKSRFTISRDNAKNTVYLEMNSLKPEDTAVYYCAADTYNSNPARWDGYDFRGQGTLVTVSSGGGGSGGGGSGGGGSGGGGSGGGGSGGGGSGGGGSEVQLVESGGGLVQAGGSLRLSCAASGRTFSSYAMGWFRQAPGKDREFVAAISWIGESTYYADSVKGRFTISRDNAKNTVYLRMNSLKPEDTAVYYCAADLYYTAYVAAADEYDYWGQGTLVTVSS	IC50, IL-17 release, PBMC D840 [1]: 22 nM; fold ctrl [5]: 1.1 fold
~1 nM	11 nM	~1 nM										IL23R#20-35GS-CD4#8 (bispecific antibody, also called BI#43; T023200043) EVQLVESGGGLVQAGGSLRLSCAASGRTFSSYAMGWFRQAPGKDREFVAAISWIGESTYYADSVKGRFTISRDNAKNTVYLRMNSLKPEDTAVYYCAADLYYTAYVAAADEYDYWGQGTLVTVSSGGGGSGGGGSGGGGSGGGGSGGGGSGGGGSGGGGSEVQLVESGGGSVQPGGSLTLSCGTSGRTFNVMGWFRQAPGKEREFVAAVRWSSTGIYYTQYADSVKSRFTISRDNAKNTVYLEMNSLKPEDTAVYYCAADTYNSNPARWDGYDFRGQGTLVTVSS	fold ctrl [5]: 1.5 fold
~1 nM	6.6 nM	~1 nM										CD4#8-35GS-IL23R#19 (bispecific antibody, also called BI#45; T023200045) EVQLVESGGGSVQPGGSLTLSCGTSGRTFNVMGWFRQAPGKEREFVAAVRWSSTGIYYTQYADSVKSRFTISRDNAKNTVYLEMNSLKPEDTAVYYCAADTYNSNPARWDGYDFRGQGTLVTVSSGGGGSGGGGSGGGGSGGGGSGGGGSGGGGSGGGGSEVQLVESGGGLVQPGGSLTLSCVASGRTFSTDVMGWFRQAPGKEREFVAAHRTSGISTVYAASVKGRFTISRDNAKNTVYLGMKSLKPEDTAVYVCAAGSDASGGYDYWGQGTLVTVSS	IC50, IL-17 release, PBMC D840 [1]: 24.2 nM; fold ctrl, IL-17 release [1]: 4.1 fold; fold ctrl [6]: 0.3 fold
			170 pM	1710 fold	28 nM	~1 nM	~1 nM	2.2 nM	1700 pM	50 fold	15 nM	CD4#8-35GS-IL12Rb1#31 (bispecific antibody, also called BI#41; T023200041) EVQLVESGGGSVQPGGSLTLSCGTSGRTFNVMGWFRQAPGKEREFVAAVRWSSTGIYYTQYADSVKSRFTISRDNAKNTVYLEMNSLKPEDTAVYYCAADTYNSNPARWDGYDFRGQGTLVTVSSGGGGSGGGGSGGGGSGGGGSGGGGSGGGGSGGGGSEVQLVESGGGLVQTGGSLRLSCAASGRTPSIIAMGWFRQTPGKEREFVGEIILSKGFTYYADSVKGRFTISRANAKNTITMYLQMNSLKSEDTAVYYCAARQNWSGNPTRTNEYEYWGQGTLVTVSS	fold ctrl [15]: 0.8 fold; fold ctrl [16]: 0.7 fold
